Data as given in the supplement of paper PMC9170038.

System: MS2 coat protein
Test: apparent KD of MS2 coat protein; designed switch direction (-1 OFF switch, 1 ON switch): 1; higher = weaker reporter binding
Summary of the method: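 The apparent KD reported per design is the median over clusters of curve fits to normalised cluster fluorescence. The RNA switches were transcribed on Illumina chips by stalled E. coli RNA polymerase. SNAP-549-labelled MS2 coat protein was titrated from 0.7 or 1.5 nM, doubling up to 3 µM, in Tris-HCl pH 7.5 buffer containing KCl, MgCl2, BSA, DTT, tRNA and Tween-20, with no input, 200 uM small-molecule ligand, or an oligonucleotide input.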

[1] = input ligand: microRNA oligo, concentration not stated
[2] = Eterna round: R95, input ligand: FMN 200 uM
[3] = Eterna round: R95, input ligand: microRNA oligo, concentration not stated
[4] = Eterna round: R95, input ligand: none

Sequence	apparent KD of MS2 coat protein (input ligand: FMN 200 uM)	apparent KD of MS2 coat protein [1]	apparent KD of MS2 coat protein (input ligand: none)	apparent KD of MS2 coat protein [2]	apparent KD of MS2 coat protein [3]	apparent KD of MS2 coat protein [4]
UUGAAGAAUAUAGGAUAUUGAAUACAUAUGUUUAACAUGAGGAUCACCCAUGUGGGUUGCGGUAUCGAGAAGGAUAAUUACUAG [Mat - Same State NG 2 - JL mod - D12] (Eterna round: R96, puzzle: Same State NG 2)	185 nM	131 nM	140 nM	–	–	–
AGCUAUCGAAAACGAUAGCAAAAGCAUGUACAUGAGGAUCACCCAUGUCAUGUACAAGCUUUUUGCUCGUCUUGAAA [Zipper 23 - 9] (Eterna round: R96, puzzle: Sensor for hsa-mir-208a)	496 nM	16.6 nM	824 nM	–	–	–
AAGAAGACGAACAAGGAUAUGUCAAAGGAAACAUGAGGAUCACCCAUGUAGAGAUUGGAAAAGAAACAGAAGGUGUACAGAAAGA [JR_SS2_Sub005] (puzzle: Same State 2)	–	–	–	24.8 nM	33.3 nM	35.1 nM
GUAAAGAAUUAAGGAUAUUGAUUACAUAUGUUUAACAUGAGGAUCACCCAUGUGGGUUGCGGUAUCGAGAAGGUAAAAUAAUAG [Mat - same State NG 2 - JL mod - D86] (Eterna round: R96, puzzle: Same State NG 2)	190 nM	131 nM	174 nM	–	–	–
GGUUUAGUCAGGUACAGUUGCACCUGAAAACAUGAGGAUCACCCAUGUUUGGGACAAGCUUUGCUCCUCGUCUUGCC [Ralausen] (puzzle: Sensor for hsa-mir-208a)	–	–	–	101 nM	77.6 nM	152 nM
UGAAUAAUGUUAGGAUAUACAUGAGGAAUCCUCGUAGAAGGAACAUGACAUGAGGAUCACCCAUGUAGCGCUCAGAAGAGCGCA [Mat - Same State NG 1 - JL mod - D50] (Eterna round: R96, puzzle: Same State NG 1)	–	73.4 nM	–	–	–	–
AGGUGGUGUGGAAAGGAUAUACGGUUGAGGACAUGAGGAUCACCCAUGUGGUAGAGGACGUAAGGGUAGAAGGUUCGGGAUUGGU [JR_SS@_Sub022] (puzzle: Same State 2)	–	–	–	41.2 nM	36.5 nM	41.7 nM
GCUACCAUAGAAGCCAACAUGAGGAUCACCCAUGUAUGUUGGUAGGAUAUCGAUUGCAAAGCGAUCGAGAAGGGCUAAGGUAGC [Mat - Same State NG 3 - JL Mod - D83] (Eterna round: R96, puzzle: Same State NG 3)	164 nM	130 nM	139 nM	–	–	–
CAGCGCUGUCGAGAGGAUAUGCGGUGGUGGACAUGAGGAUCACCCAUGUUAGCGAUAGCAUUACGGUAGAAGGCUCUACAGCUGC [Soteed - 2] (puzzle: Same State 2)	–	–	–	30.9 nM	22.4 nM	33 nM
GUGGUGGGUUGAGGAUAUUGGUUGUUGUUGUCCCACAUGAGGAUCACCCAUGUGGGUUGUGGUUUUGAGAAGGUUGGUUGCCGG [salish99_SSNG2_r04_053] (Eterna round: R96, puzzle: Same State NG 2)	–	15 nM	–	–	–	–
GACGAGGUGGGAGGAUAUAGCCCGUGGACUGUACCCGAACAUGAGGAUCACCCAUGUCGAGAAACCUAGAAGGCCUACAACGUA [Eternabot solution 11] (Eterna round: R96, puzzle: Same State NG 2)	16.8 nM	10.8 nM	38.4 nM	–	–	–
UUGAAGAAUUAAGGAUAUCGAGUCGUCAGAUUAAACAUGAGGAUCACCCAUGUGGGUUGCGGUAUCGAGAAGGUAAAUUACAAG [JL JR Sub099 mod 2] (Eterna round: R96, puzzle: Same State NG 2)	20.5 nM	27.2 nM	39.9 nM	–	–	–
AAGCUCGUGUGAGGAUAUGCCGCCGUUUCGGCUGCAGAAGGUGCUACGUUACAUGAGGAUCACCCAUGUCUCUGUUGUUUCGUC [salish99_SSNG1_r04_954] (Eterna round: R96, puzzle: Same State NG 1)	–	22.1 nM	–	–	–	–
UUGCAGUCAGGUGAGGAUAUCAUGAGUUUAACAUGAGGAUCACCCAUGUGCUGCCUUGCAGCAUAUGAGAAGGCACCUGGCUGCU [JL-ss2-3.03 Brourd Mod] (puzzle: Same State 2)	–	–	–	132 nM	295 nM	535 nM
UUGAAGAAUUAAGGAUAUUGAUUACAUAUGUUUAACAUGAGGAUCACCCAUGUGGGUUGCGGUAUCGAGAAGGUAAAUUACUAG [JL SSNG2 1.47] (Eterna round: R96, puzzle: Same State NG 2)	137 nM	122 nM	162 nM	–	–	–
AACCUACAUGAGGAUCACCCAUGUAUCUGAGGCACAGGAUAUCGACAGGCAAGACACCUGCGAGAAGGGUGACCUC [Same State 1 - Mod of Vinnie Diatater v.2] (puzzle: Same State 1)	–	–	–	–	53.6 nM	–
UGUUAGUAGACAGGAUAUUGAAUGUUAAGUAUUAACAUGAGGAUCACCCAUGUAUUUGAUUGGUACAAGAAGGGUCAAGUUUGU [JR_SSNG2_Sub013] (Eterna round: R96, puzzle: Same State NG 2)	487 nM	191 nM	320 nM	–	–	–
AGGCUCAGAGCAGGAUAUAUGUAAUAACAUGAGGAUCACCCAUGUGUCGAGCUUCGGCUCGACACAUAGAAGGGCUCUGAGCCA [SSNG2/2-B1] (Eterna round: R96, puzzle: Same State NG 2)	16.9 nM	28.8 nM	45.9 nM	–	–	–
GAGUGGCAGUAAGGAUAUAUAGUGAUAAUCACAGUAGAAGGUACUGACAUGAGGAUCACCCAUGUAGGACUAAUCCAGAGAGAG [Parity 42 - Jieux - Same State NG 1] (Eterna round: R96, puzzle: Same State NG 1)	73.6 nM	26.4 nM	37.5 nM	–	–	–
AUUAUUUAUGCAGGAUAUGAUUAACAUGAGGAUCACCCAUGUGGUGUUGUGAGUAAGGAGAGUGAUCAGAAGGGCAUCUUUUUU [JMF's solution 44] (Eterna round: R96, puzzle: Same State NG 2)	610 nM	227 nM	414 nM	–	–	–
AUUAAACAUGAGGAUCACCCAUGUCAACAAAGUCGAGGAUAUGGGCAAAUAAAAUAAUAACCAGAAGGCGAAUAAU [salish99_ss1_r3_065] (puzzle: Same State 1)	–	–	–	37.8 nM	353 nM	295 nM
GGAAUAUUUACAGGAUAUGAUUUGUUAAGUCGAUCAGAAGGGUGGAUGUCUUACACGGUUUGUUACAUGAGGAUCACCCAUGUC [SameState NG1 #14] (Eterna round: R96, puzzle: Same State NG 1)	73.3 nM	74 nM	176 nM	–	–	–
AUCCUACAUGAGGAUCACCCAUGUGACGCCUCGAUAGGAUAUGCGUGUGCCUUGGCGCAUGCAGAAGGAUUGUAGC [JL Aveso mod 6] (puzzle: Same State 1)	–	–	–	–	30.5 nM	–
